Molecular target: the molecule itself
Assay: circular dichroism of purified D4 in 0.1M sodium phosphate pH 7.0 after two days at 4° C.; self-association into homotrimeric helices
Description: The solution was incubated at 4° C. for two days to allow triple helices to form prior to analysis. Spectra were obtained on an Aviv model 62DS spectropolarimeter (Yale University, Molecular Biophysics and Biochemistry Department). A 1 mm path length quartz suprasil fluorimeter cell was used. Following a 10 min. incubation period at 4° C., standard wavelength spectra were recorded from 260 to 190 nm using 10 sec acquisition times and 0.5 nm scan steps. This spectrum is characterized by a negative ellipticity at 198 nm and a positive ellipticity at 221 nm. The magnitudes of both of these absorbances was greater in neutral pH buffer compared to acidic conditions. […] See, e.g., Venugopal et al., Biochemistry, 33, 7948 (1994). Heating at 85° C. for five minutes prior to obtaining the CD spectrum decreased the magnitude of the absorbance at 198 nm and abolished the absorbance at 221 nm (FIG. 33). This behavior is also typical of the triple helical structure of collagen. See, R. S. Bhatnagar et al., Circular Dichroism and the Conformational Analysis of Biomolecules G. D. Fasman, Ed., supra. A thermal melt profile of D4 conducted as above in phosphate buffer gave a melting temperature of about 29° C. […] (See, A. Rossi, et al., Biochemistry 35, 6048 (1996)).

B1: D4, 219 amino acid C-terminal fragment of human collagen Type I (α1), hydroxyproline-containing (other)
chain: MGPPGLAGPPGESGREGAPGAEGSPGRDGSPGAKGDRGETGPAGPPGAPGAPGAPGPVGPAGKSGDRGETGPAGPAGPVGPAGARGPAGPQGPRGDKGETGEQGDRGIKGHRGFSGLQGPPGPPGSPGEQGPSGASGPAGPRGPPGSAGAPGKDGLNGLPGPIGPPGPRGRTGDAGPVGPPGPPGPPGPPGPPSAGFDFSFLPQPPQEKAHDGGRYYRA
modifications: trans-4-hydroxyproline in place of proline at all proline positions (100% substitution by mass spectrometry and amino acid analysis)
notes: also called D4-α1; protein D4
binding result: binds

Reference: patent US6958223 (UNITED STATES SURGICAL, dated 2005)
